Test results reported in US20230295310A1 (ABCELLERA BIOLOGICS, published 2023).

B1: mAb 160 (antibody, V domains shown)
VH: EVQLVESGGGLVQPGRSLRLSCAVSGFTFNDYTMHWVRQVPGKGLEWVSGISWNSGSIGYADSVKGRFTISRDNAKNSLYLQMNSLRAEDTALYFCAKDSSGYGHYYYYYMDVWGRGTTVTVSS
VL: EIVMTQSPATLSVSPGERATLSCRASQSVRKNLAWYQQKPGQAPRLLIYGASTRATGIPARFSGSGSGTEFTLTISSLQSEDFAVYYCQLYNNWPHFGQGTRLEIK
notes: VH and VL only
B2: mAb 167 (antibody, V domains shown)
VH: EVHLVESGGGLVQPGRSLRLSCAASGFTFDDYAMHWVRQAPGKGLEWVSGISWNSGTIGYADSVKGRFTISRDNAKNSLYLEMNSLRAEDTALYYCAKDSSGYGHYYHYYIDVWGTGTTVTVSS
VL: EIVMTQSPATLSVSPGGRATLSCRASQSVGSNLAWYQQKPGQAPRLLIYDASTRATGIPARFRGSGSGTEFTLTISGLQSEDFAVYYCQLYYNWPHFGQGTRLEIK
notes: VH and VL only
B3: mAb 179 (antibody, V domains shown)
VH: EVQLVESGGGLVQPGRSLRLSCAASGFTFDDYTMHWVRQTPGKGLEWVSDISWNSGSIGYADSVKGRFTISRDNAKNTLYLQMNSLRAEDTALYYCVKDSSGYGHYLYYYMDVWGKGTTVTVSS
VL: DIQMTQSPSSLSASVGDRVTITCRASQSIRNYLNWYQQSPGRAPKLLIFSASSLQSGVPSRFSGSGSGTDFTLTISSLQPEDFVTYYCQQRYSTPITFGQGTRLEIK
notes: VH and VL only
B4: mAb 172 (antibody, V domains shown)
VH: EVQLVESGGGLVQPGRSLRLSCTTSGFTFDDYTMHWVRQVPGKGLEWVSDISWNSGSVGYADSVKGRFTISRDNAKNSLYLQMNSLRAEDTALYYCVKDSSGYGHYFHYYMDVWGKGTTVTVSS
VL: DIQMTQSPSSLSASVGDRVTITCRASQSISNYLNWYQVKPGKAPKVLIYAASSLQSGVPSRFSGSGSGTDFTLTISSLQPEDFVSYYCHQSYNAPITFGQGTRLESK
notes: VH and VL only
B5: mAb 178 (antibody, V domains shown)
VH: EVQLVESGGGLVQPGRSLRLSCAASGFTFDDYTMHWVRQAPGKGLEWVSDISWNSGTIGYADSVKGRFTISRDNAKNSLYLQMNSLRAEDTALYYCVKDSSGYGHYYKYYMDVWGKGTTVTVSS
VL: DIQMTQSPSSLSASVGDRVTITCRASQSISNYLNWYQQKAGKVPKVLIYGSSSLQSGVPSRFSGSGSGTDFTLTISSLQPEDFASYYCQQTYSSPLTFGGGTKVDFK
notes: VH and VL only
B6: mAb 173 (antibody, V domains shown)
VH: EVQLVESGGGLVQPGRSLRLSCAASGFTFDDYTMHWVRQVPGKGLEWVSDISWNSGSVGYADSVKGRFTISRDNAKNSLYLQMNSLRAEDTALYYCVKDSSGYGHYFHYYMDVWGKGTTVTVSS
VL: DIQMTQSPSSLSASVGDRVTITCRASQSISNYLNWYQVKPGKAPKVLIYAASSLQSGVPSRFSGSGSGTDFTLTISSLQPEDFVSYYCHQSYNTPITFGQGTRLEIK
notes: VH and VL only
B7: mAb 170 (antibody, V domains shown)
VH: EVQLVESGGGLVRPGRSLRLSCAASGFTFDDYTMHWVRQAPGKGLEWVSGISWNSGSIGYADSVKGRFTISRDNAKNSLYLQMNSLRAEDTALYYCSKDSSGYGYYLNYSLDVWGKGTTVTVSS
VL: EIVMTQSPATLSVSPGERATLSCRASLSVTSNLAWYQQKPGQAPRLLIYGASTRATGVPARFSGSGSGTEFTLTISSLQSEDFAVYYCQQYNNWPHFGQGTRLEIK
notes: VH and VL only
B8: mAb 162 (antibody, V domains shown)
VH: EVQLVESGGGLVQPGRSLRLSCAASGFTFDNYAMHWVRQAPGKGLEWVSGISWNSGSIGYADSVKGRFTISRDNAKNSLYLELNSLRAEDTALYYCAKDSSGYGYYYNYYMDVWGKGTTVTVSS
VL: EIVMTQSPATLSVSPGERATLSCRASQSVRSNLAWYQQKPGQAPRLLIYGASTRATGIPAKFSGSGSGTEFTLTISSLQSEDFAVYYCQYYYNWPHFGQGTRLEIK
notes: VH and VL only
B9: mAb 176 (antibody, V domains shown)
VH: EVELVESGGGLVQPGRSLRLSCAASGFKFDDYTMHWVRLPPGKGLEWVSGISWNSGTIDYGDSVKGRFTISRDNAKNSLYLQMNSLRVEDTALYYCAKDTSGYGHYFYYYMDVWGKGTTVTVSS
VL: DIQMTQSPSSLSASIGDRVSITCRTSQIINNYLNWYQQKPGKAPKVLIYSASSLQSGVPSRFSGSGSGTDFTLTINSLQPEDFATYYCQQSYNFPITFGQGTRLELK
notes: VH and VL only
B10: mAb 177 (antibody, V domains shown)
VH: EVQLVESGGGLVQPGMSLRLSCAASGFTFDDYTMHWVRQSPGKGLEWVAGISWNSGTIGYGDSMKGRFTISRDNAKNSLDLQMNSLRVEDTALYYCAKDTSGYGHYYYYFMDVWGKGTTVTVSS
VL: DIQMTQSPSSLSASIGDRVSITCRTSQIINNYLNWYQQKPGKAPKLLIYSASSLQSGVPSRFSGSGSGTDFTLTLSSLQPEDFATYFCQQSYNFPITFGQGTRLELK
notes: VH and VL only; The printed VL holds a letter 'U'
B11: mAb 284 (antibody, V domains shown)
VH: EVQLLESGGGLVQPGGSLRLSCAASGFTFSSYAMSWVRQAPGKGLEWVSAISGSSGRTYYTDSVKGRFTISRDNSKNTLSLQMNSLRAEDTAVYYCAKKYSYYYYYMDVWGKGTTVTVSS
VL: SYELTQPLSVSVALGQTAKITCGGNNIGSKNVHWYQQKPGQAPVLVIYRDSNRPSGIPERFSGSNSGNTATLTISRAQAGDEADYYCQVWDSSTAVFGGGTQLTAL
notes: VH and VL only
B12: mAb 285 (antibody, V domains shown)
VH: EVQLLESGGGLGQPGGSLRLSCAASGFTFSNYAMSWVRQAPGKGLEWVSVISGSGGDKNYADSVKGRFTISRDNSKNTLYLQMNSLRAEDTAVYYCAKKYSYYYYYMDVWGKGTTVTVSS
VL: SYELTQPLSVSVALGQTARITCGGNNIGSKDVHWYQQKPGQAPVLVIYRDSNRPSGIPERFSGSNSGNTATLTISSAQAGDEADYYCQVWDSRTAVFGGGTQLTAL
notes: VH and VL only
B13: mAb 228 (antibody, V domains shown)
VH: EVQLLESGGGLVQPGGSLRLSCAASGFTFSNYAMNWVRQAPGKGLEWVSTISGSGGGKYYADSVKGRFTISRDNSKNTLYLHMNSLRAEDTAVYYCAKDPVQDRYYFYYYYMDVWGKGTTVTVSS
VL: EIVLTQSPDFQSVTPKEKVTITCRASQSIGSSLHWYQQKPDQSPKLLIKYASQSISGVPSRFSGSGSGTDFTLTINSLEAEDAAAYYCHQSSSLPHTFGQGTKLEIK
notes: VH and VL only
B14: mAb 240 (antibody, V domains shown)
VH: QGKLVESGGGVVQPGRSLRLSCVASGFTFSGYGMHWVRQAPNKGLEWVAIIYYDGKNKYYADSVKGRFTISRDNSKNTLYLQLNSLRAEDTAVYYCVRGPGYNWFDPWGQGTLVTVSS
VL: EIVLTQSPDFQSVTPKEKVTITCRASQNIGSSLHWYQQKPDQSPKLLIKHASQSFSGVPSRFSGSGSGTDFTLTINSLEAEDAATYYCHQSSSLPYTFGQGTKLEIK
notes: VH and VL only
B15: mAb 258 (antibody, V domains shown)
VH: EVQLLESGGGLVQPGGSLRLSCAASGFTFSNYAMNWVRQAPGKGLEWVSVISNSGGTRLYVDSVKGRFTISRDNSKNTLYLQMSSLRAADTAVYYCAKDAAAALYYYYFYYMDVWGKGTTVTVSS
VL: EIVLTQSPDFQSVTPKEKVTITCRASQSIGSSLHWYQQKPDQSPKLLIKYASQSFSGVPSRFSGSGSGTDFTLTINSLEAEDAATYYCHQSSSLPYTFGQGTKLEIK
notes: VH and VL only
B16: mAb 230 (antibody, V domains shown)
VH: EVQLLESGGGLVQPGGSLRLSCAASGFTFSSYAMSWVRQAPGKGLEWVSSISGSGGSRYYADSVKGRFTISRDNSKNTLYLQMNSLRAEDTAVYYCAKDPVQDRYYFYYYYMDVWGKGTTVTVSS
VL: EIVLTQSPDFQSVTPKEKVTITCRASQSIGSSLHWYQQKPDQSPKLLIKYASQSISGVPSRFSGSGSGTDFTLTINSLEAEDAAAYYCHQSSSLPHTFGQGTKLEIK
notes: VH and VL only

target: T1, human CD3e/d (human, UniProt P07766 23-126; P04234 22-105); test: SPR (Carterra LSA), mAb on chip
T1 construct: Bought soluble protein; also called hCD3e/d; human CD3/ed (Sino CT038-H2508H)
Procedure: High-throughput surface plasmon resonance (SPR) coupled kinetic experiments were performed on a Carterra LSA® instrument equipped with an HC-30M chip type (Carterra, USA). The instrument uses two microfluidic modules, a single-flow cell (SFC) and a 96 printhead, to deliver samples to the chip surface via back-and-forth cycling of a fixed sample volume. An up to 384-ligand array is generated by docking the MFC onto each of the four nested print block locations in a serial manner.
The purified mAbs were immobilized on a Carterra LSA® HC-30M chip by direct coupling. The chip surface was first activated by flowing a freshly prepared 1:1:1 activation mix of 100 mM MES pH 5.5, 100 mM S-NHS, 400 mM EDC for 7 min. mAbs diluted to 10 μg/mL in 10 mM NaOAc pH 4.25+0.01% TWEEN®20 were then injected and printed onto the chip surface simultaneously using the MFC printhead for 10 min. Finally, the chip surface was quenched by flowing 1 M ethanolamine for 7 min (to block the excess reactive esters), followed by 2 wash steps of 15 s each in 25 mM MES pH 5.5. In addition to expressed and purified mAbs, relevant benchmarks and negative control mAbs were also printed on the chip surface.
The data were analyzed using the Carterra Kinetics analysis software. Briefly, the data were referenced with the interstitial reference spots and double-referenced to a buffer cycle, and then fit globally to a 1:1 Langmuir binding model to determine their apparent association (ka) and dissociation (kd) kinetic rate constants and binding affinity constants (KD).

T1 sequence (P07766 23-126, chain 1 of 2): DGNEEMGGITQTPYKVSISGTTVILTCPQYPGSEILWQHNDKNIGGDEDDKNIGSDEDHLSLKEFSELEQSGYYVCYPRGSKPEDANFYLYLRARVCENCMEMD
T1 sequence (P04234 22-105, chain 2 of 2): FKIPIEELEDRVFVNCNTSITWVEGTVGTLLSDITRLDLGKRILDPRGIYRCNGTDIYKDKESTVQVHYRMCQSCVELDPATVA

Question: How did the Kd turn out when B1 was run?
Answer: Its Kd is 0.0152 µM.

Question: Which Kd does the source give for B2 here?
Answer: The Kd was 0.00626 µM.

Question: With B3 as the binder, how does the Kd read?
Answer: The Kd was 0.00772 µM.

Question: With B4 as the binder, how does the Kd read?
Answer: Its Kd is 0.00483 µM.

Question: B5 was tested. Which Kd did it give?
Answer: Its Kd is 0.000992 µM.

Question: B6 was tested. Which Kd did it give?
Answer: Its Kd is 0.00711 µM.

Question: For B7, which Kd is on record?
Answer: The Kd was 0.0719 µM.

Question: For B8, which Kd is on record?
Answer: Its Kd is 0.0194 µM.

Question: Which Kd does the source give for B9 here?
Answer: The Kd was 0.00349 µM.

Question: B10 was tested. Which Kd did it give?
Answer: Its Kd is 0.0411 µM.

Question: B11 was tested. Which Kd did it give?
Answer: Its Kd is 0.45 µM.

Question: With B12 as the binder, how does the Kd read?
Answer: Its Kd is 0.15 µM.

Question: How did the Kd turn out when B13 was run?
Answer: Its Kd is 0.025 µM.

Question: For B14, which Kd is on record?
Answer: The Kd was 0.018 µM.

Question: Which Kd does the source give for B15 here?
Answer: Its Kd is 0.024 µM.

Question: How did the Kd turn out when B16 was run?
Answer: Its Kd is 0.018 µM.
